In patent US20190127480A1 (Regeneron, published 2019):

Key:
[1] = target: human CD3 expressed on cells (Jurkat cells; human T-cells of PBMC) (human, UniProt P09693 23-182; P20963 22-164); experiment: cell-based or functional assay
[2] = target: T1, human PSMA expressed with an N-terminal hexahistidine tag (6h.hPSMA, R&D) (human, UniProt Q04609 44-750); experiment: SPR Biacore T-200, 37 C, antibody-capture (anti-human Fc), 6h.hPSMA as analyte
T1 construct: Bought soluble protein; also called soluble human PSMA; human PSMA protein
T1 sequence (Q04609 other isoform, or with tags, fused parts or gaps limits assumed): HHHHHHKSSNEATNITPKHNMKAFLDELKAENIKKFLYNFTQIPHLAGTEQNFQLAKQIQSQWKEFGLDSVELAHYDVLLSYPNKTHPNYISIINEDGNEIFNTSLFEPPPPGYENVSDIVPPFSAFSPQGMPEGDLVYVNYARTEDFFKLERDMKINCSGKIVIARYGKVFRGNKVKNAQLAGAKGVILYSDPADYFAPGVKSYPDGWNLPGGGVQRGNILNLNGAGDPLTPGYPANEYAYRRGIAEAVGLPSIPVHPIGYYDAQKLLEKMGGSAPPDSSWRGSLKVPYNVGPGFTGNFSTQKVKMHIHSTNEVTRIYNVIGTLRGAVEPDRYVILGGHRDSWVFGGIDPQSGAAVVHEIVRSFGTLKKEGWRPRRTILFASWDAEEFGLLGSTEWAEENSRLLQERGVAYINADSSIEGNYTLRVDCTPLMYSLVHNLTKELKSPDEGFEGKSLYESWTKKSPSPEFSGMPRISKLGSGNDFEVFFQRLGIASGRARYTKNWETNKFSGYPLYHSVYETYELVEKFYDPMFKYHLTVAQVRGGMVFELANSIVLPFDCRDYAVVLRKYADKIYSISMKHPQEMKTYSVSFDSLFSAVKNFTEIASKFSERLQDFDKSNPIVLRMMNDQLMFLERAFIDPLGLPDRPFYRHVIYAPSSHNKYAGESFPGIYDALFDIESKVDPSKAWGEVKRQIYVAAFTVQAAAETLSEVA
Description: In this example, anti-PSMA antibodies were assessed for their ability to bind to human PSMA. […] Measurements were conducted on a Biacore™ T-200 instrument (GE Healthcare).
Briefly, a CM5 Biacore™ sensor surface was derivatized via amine coupling with a monoclonal mouse anti-human Fc antibody (GE, # BR-1008-39) or monoclonal goat anti-mouse Fc antibody (GE, # BR-1008-38) to capture purified anti-PSMA antibodies. Binding studies were performed in HBSP++ buffer composed of 0.01M HEPES, 0.15M NaCl, 2 mM Ca²⁺, 2 mM Mg²⁺, 0.05% v/v Surfactant P20, pH7.4. Varying concentrations of human PSMA expressed with an N-terminal hexahistidine tag (6h.hPSMA, R&D) prepared in HBSP++ running buffer (ranging from 50 to 0.78 nM, 4-fold dilutions) were injected over the anti-PSMA antibody captured surface at a flow rate of 30 μL/minute. Antibody-reagent association was monitored for 2 minutes while dissociation in HBSP++ running buffer was monitored for 8 minutes.
Kinetic association (kₐ) and dissociation (kd) rate constants were determined by fitting the real-time sensorgrams to a 1:1 binding model using Scrubber 2.0c curve fitting software. Binding dissociation equilibrium constants (KD) and dissociative half-lives (t½) were calculated from the kinetic rate constants as: KD (M)=kd/kₐ; and t_{1/2} (min)=(ln 2/(60*kd).

Chain of human CD3 expressed on cells (Jurkat cells; human T-cells of PBMC) (chain, as listed by the source, chain 1 of 4): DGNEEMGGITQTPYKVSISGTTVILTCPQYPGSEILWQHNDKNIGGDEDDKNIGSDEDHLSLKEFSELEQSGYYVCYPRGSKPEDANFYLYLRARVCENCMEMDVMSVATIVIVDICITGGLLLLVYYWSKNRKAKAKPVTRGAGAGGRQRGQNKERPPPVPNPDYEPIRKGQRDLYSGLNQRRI
Chain of human CD3 expressed on cells (Jurkat cells; human T-cells of PBMC) (chain, as listed by the source, chain 2 of 4): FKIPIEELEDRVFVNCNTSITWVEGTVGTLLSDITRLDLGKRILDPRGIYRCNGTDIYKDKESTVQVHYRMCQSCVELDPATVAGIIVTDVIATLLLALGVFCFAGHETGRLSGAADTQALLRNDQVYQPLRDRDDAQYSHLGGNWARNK
Chain of human CD3 expressed on cells (Jurkat cells; human T-cells of PBMC) (P09693 23-182, chain 3 of 4): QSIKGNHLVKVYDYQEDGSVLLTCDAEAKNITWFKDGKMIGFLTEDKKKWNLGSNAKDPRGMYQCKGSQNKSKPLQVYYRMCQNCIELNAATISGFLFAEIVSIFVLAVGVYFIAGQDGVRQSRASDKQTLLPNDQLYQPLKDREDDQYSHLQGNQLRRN
Chain of human CD3 expressed on cells (Jurkat cells; human T-cells of PBMC) (P20963 22-164, chain 4 of 4): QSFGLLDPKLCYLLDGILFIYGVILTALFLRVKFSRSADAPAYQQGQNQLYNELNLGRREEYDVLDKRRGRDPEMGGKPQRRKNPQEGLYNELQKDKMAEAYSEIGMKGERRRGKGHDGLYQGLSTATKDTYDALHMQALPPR

Binder | U937 Cytotoxicity Human T-cells [1] | also measured
H2M2690N (antibody, mouse IgG2, V domains shown) VH: EVQLVESGGGLVQPGRSLRLSCAASGFTFDDYTMHWVRQAPGKGLEWVSGISWNSGSIGYADSVKGRFTISRDNAKKSLYLQMNSLRAEDTALYYCAKDNSGYGHYYYGMDVWGQGTTVTVAS VL: EIVMTQSPATLSVSPGERATLSCRASQSVSSNLAWYQQKPGQAPRLLIYGASTRATGIPARFSGSGSGTEFTLTISSLQSEDFAVYYCQHYINWPLTFGGGTKVEIK | 27.9 pM | –
H2M2779N (antibody, V domains shown) VH: EVQLVESGGGLVQPGGSLRLSCAATGFTFDDFTMHWVRQAPGKGLEWVSGISWNSGSIGYVDSVKGRFTISRDNAKNSLYLQMNSLRAEDTALYYCAKDNSGYGYYYYGMDVWGQGTTVTVSS VL: not shown | 675 pM | –
H1M2712N (antibody, mouse IgG1, V domains shown) VH: EVQLVESGGGLVQPGGSLRLSCAATGFTFDDFTMHWVRQAPGKGLEWVSGISWNSGSIGYVDSVKGRFTISRDNAKNSLYLQMNSLRAEDTALYYCAKDNSGYGYYYYGMDVWGQGTTVTVSS VL: EIVMTQSPATLSVSPGERATLSCRASHSVSRNSAWYQQKPGQAPRLLIYGASTRATGIPARFSGSGSGTEFTLTISSLQSEDFAIYYCQQYNNWPLTFGGGTKVEIK | 314 pM | –
H2M2706N (antibody, mouse IgG2, V domains shown) VH: QVQLVESGGGVVQPGRSLRLSCAASGFTFRSYAMHWVRQAPGKGLEWVAMVYYDGNNQYYADSVRGRFTISRDNSKNTLYLQMNSLRADDTAVYFCARGPGYNWLDPWGQGTLVTVSS VL: EIVMTQSPATLSVSPGERATLSCRASQSVSRNLAWYQQKPGQAPRLLIYGASTRATGIPARFSGSGSGTDFTLTISSLQSEDFAVYYCQQYNNWPLTFGGGTKVVIK | 7.91 pM | –
H2M2705N (antibody, mouse IgG2, V domains shown) VH: QVQLVESGGGVVQPGRSLRLACVASGFTFRSYGMHWVRQAPGKGLQWVAMIYYDGKNKYYADSVRGRFTISRDNSKNTLYLQMNNLRVEDTAMYFCARGPGYNWLDPWGQGTLVTVSS VL: EIVMTQSPATLSVSPGERATLSCRASQRISSNLAWYQQKPGQAPRLLIYGASTRATGSPARFSGSGSGTDFTLTISSLQSEDVAVYYCQQHHNWPLTFGGGTKVEIK | 1.73 pM | –
H2M2691N (antibody, mouse IgG2, V domains shown) VH: EVQLVESGGGLVQPGRSLRLSCAASGFTFDDYTMHWVRQAPGKGLEWVSGISWNSGSIGYADSVKGRFTISRDNAKKSLYLQMNSLRAEDTALYYCAKDNSGYGHYYYGMDVWGQGTTVTVAS VL: EIVMTQSPATLSVSPGERATLSCRASQSVSSNLAWYQQKPGQAPRLLIYGASTRATGIPARFSGSGSGTEFTLTISSLQSEDFAVYYCQHYINWPLTFGGGTKVEIK | 23.4 pM | –
H1M2692N (antibody, mouse IgG1, V domains shown) VH: EVQLVESGGGLVQPGGSLRLSCAASGFSFDDYTMHWVRQPPGKGLEWVSGISWNSGSIGYADSVKGRFTISRDNAKNSLYLQMNSLRAGDTALYYCAKDNSGYGYYYYYGMDVWGQGTTVTVSS VL: EIVMTQSPATLSVSPGERATLSCRASQSVSSNLAWYQQKPGQAPRLLIYGASTRATGIPARFSGSGSGTEFTLTISSLQSEDFAVYYCQQYYNWPLTFGGGTKVEIK | 359 pM | –
H2M2777N (antibody, mouse IgG2, V domains shown) VH: QVQLVESGGGVVQPGRSLRLSCIASGFTFRSYGMHWVRQAPGKGLEWVAMIYYDGNNKYYADSVRGRFTISRDNSKNTLYLQMNSLRADDTAVYFCARGPGYNWLDPWGQGTLVTVSS VL: EIVMTQSPATLSVSPGERATLSCRASQSVSSNLAWYQQKPGQAPRLLIYGASTRATGIPARFSGSGSGTEFTLTISSLQSEDFAVYYCQQYNNRPLTFGGGTKVEIK | 4.86 pM | –
H2M2778N (antibody, mouse IgG2, V domains shown) VH: EVQLVESGGGLVQPGRSLRLSCAASGFTFDDYSMHWVRQAPGKGLEWVSGISWNSRSIDYADSVKGRFTISRDNAKNSLYLQMNSLRAEDTALYYCVKDNSGYGRYYYYGMDVWGQGTTVSVSS VL: KIVMTQSPATLSVSPGERATLSCRASQSVSGNLAWYQQKPGQAPRLLIYGASTRATSIPARFSGSGSGTEFTLTISSLQSEDFAVYFCQHYYNWPLTFGGGTKVEIR | 0 pM | –
H2M2711N (antibody, V domains shown) VH: QVQLVESGGGVVQPGRSLRLSCAASGFTFRSFGMHWVRQAPGRGLEWVAMIYFDGKNKYYADSVRGRFTISRDNSKNTLYLEMSSLRAEDTAVYFCARGPGYNWLDPWGQGTLVTVSS VL: EIVMTQSPATLSVSPGERATLSCRASQSVSRNLAWYQQKPGQAPRLLIYGASTRATGVPARFSGSGSGTEFTLTISSLQSEDFAVFHCQQYNNRPLTFGGGTEVEIK | 3.66 pM | –
H2M2707N (antibody, mouse IgG2, V domains shown) VH: QVQLVESGGGVVQPGRSLRLSCIASGFTFRSYGMHWVRQAPGKGLEWVAMIYYDGNNKYYADSVRGRFTISRDNSKNTLYLQMNSLRADDTAVYFCARGPGYNWLDPWGQGTLVTVSS VL: EIVMTQSPATLSVSPGERATLSCRASQSVSSNLAWYQQKPGQAPRLLIYGASTRATGIPARFSGSGSGTEFTLTISSLQSEDFAVYYCQQYNNRPLTFGGGTKVEIK | 7.21 pM | –
H2M2862N (antibody, mouse IgG2, V domains shown) VH: QVQLVESGGGVVQPGRSLRLSCAASGFTFRSYGMHWVRQAPGKGLEWVAMIYYDGNNKKYADSVRGRFTISRDNSKNTLYLQMNSLRVEDTAVYFCARGPGYNWLDPWGQGTLVTVSS VL: EIVMTQSPATLSVSPGERATLSCRASQSVSRNLAWYQQKPGQAPRLLIYGASTRATDIPARFSGSGSGTEFILNISSLQSEDFALYYCQQYSNWPLTFGGGTEVEIK | 7.66 pM | –
H2M2774N (antibody, mouse IgG2, V domains shown) VH: QVQLVESGGGVVQPGRSLRLSCVASGFTFRSYGMHWVRQAPGKGLQWVAMIYYDGKNKYYADSVRGRFTISRDNSKNTLYLQMNSLRAEDTAMYFCARGPGYNWLDPWGQGTLVTVSS VL: EIVMTQSPATLSVSPGERATLSCRASQRISSNLAWYQQKPGQAPRLLIYGASTRATGSPARFSGSGSGTEFTLTISSLQSEDVAVYYCQQHNNWPLTFGGGTKVEIK | 2.46 pM | –
H2M2708N (antibody, mouse IgG2, V domains shown) VH: QVQLVESGGGVVQPGRSLRLSCAASGFTFRSFGMHWVRQAPGRGLEWVAMIYFDGKNKYYADSVRGRFTISRDNSKNTLYLEMSSLRAEDTAVYFCARGPGYNWLDPWGQGTLVTVSS VL: EIVMTQSPATLSVSPGERVTLSCRASQSISRNLAWYQQKPGQAPRLLIYGASTRATGVPARFSGSGSGTEFTLTISSLQSEDFAVFHCQQYNNRPLTFGGGTEVEIK | 3.27 pM | –
H2M2710N (antibody, V domains shown) VH: QVQLVESGGGVVQPGRSLRLSCAASGFTFRSFGMHWVRQAPGRGLEWVAMIYFDGKNKYYADSVRGRFTISRDNSKNTLYLEMSSLRAEDTAVYFCARGPGYNWLDPWGQGTLVTVSS VL: EIVMTQSPATLSVSPGERATLSCRASQSVSRNLAWYQQKPGQAPRLLIYGASTRATGVPARFSGSGSGTEFTLTISSLQSEDFAVFHCQQYNNRPLTFGGGTEVEIK | 3.97 pM | –
H2M2689N (antibody, mouse IgG2, V domains shown) VH: QVQLVESGGGVVQPGRSLRLSCAASGFTFSRKGMHWVRQAPVKGLEWVAVISYDGSNKYYADSVKGRFTISRDNSKNTLYLQMNSLTAEDTAVYYCAKEGGHDYGGTFDYWGQGTLVTVSS VL: not shown | 0 pM | –
H1H11838P2 (antibody, human IgG1, V domains shown, human IgG1) VH: QVQLVESGGGVVQPGRSLRLSCAASGFTFSSYGMHWVRQAPGKGLEWVAFMSYDGSNKFYSDSVKGRFTISRDNSRKMLFLQMNNLRAEDTAVYYCARDQYYDFLTDHGVFDYWGQGTLVTVSS VL: DIQMTQSPSSLSASVGDSVTITCRASQSINNYLNWYQQKPGKAPKLLIYTASSLLSGVPSRFSGSGSGTDFTLTISGLHPEDFATYFCQQSFSTPPITFGQGTRLDIK | – | Kd [2]: 1.99 nM; koff [2]: 0.000471 s⁻¹; kon [2]: 237000 M⁻¹ s⁻¹; t1/2 [2]: 24.5 min
H2M2775N (antibody, mouse IgG2, V domains shown) VH: QVQLVESGGGVVQPGRSLRLSCAASGFTFRSFGMHWVRQAPGRGLEWVAMIYFDGKNKYYADSVRGRFTISRDNSKNTLYLEMSSLRAEDTAVYFCARGPGYNWLDPWGQGTLVTVSS VL: EIVMTQSPATLSVSPGERVILSCRASQSISRNLAWYQQKPGQAPRLLIYGATTRATGVPARFSGSGSGTEFTLTISSLQSEDFAVFYCQQYNNRPLTFGGGTEVEIK | 3.38 pM | –
H2M2885N (antibody, mouse IgG2, V domains shown) VH: QVQLVESGGGVVQPGRSLRLSCAASGFTFRSFGMHWVRQAPGRGLEWVAMIYFDGKNKYYADSVRGRFTISRDNSKNTLYLEMSSLRAEDTAVYFCARGPGYNWLDPWGQGTLVTVSS VL: EIVMTQSPATLSVSPGERVILSCRASQSISRNLAWYQQKPGQAPRLLIYGATTRATGVPARFSGSGSGTEFTLTISSLQSEDFAVFYCQQYNNRPLTFGGGTEVEIK | 3.71 pM | –
H2M2886N (antibody, mouse IgG2, V domains shown) VH: QVQLVESGGGVVQPGRSLRLSCAASGFTFRSFGMHWVRQAPGRGLEWVAMIYFDGKNKYYADSVRGRFTISRDNSKNTLYLEMSSLRAEDTAVYFCARGPGYNWLDPWGQGTLVTVSS VL: EIVMTQSPATLSVSPGERVILSCRASQSISRNLAWYQQKPGQAPRLLIYGATTRATGVPARFSGSGSGTEFTLTISSLQSEDFAVFYCQQYNNRPLTFGGGTEVEIK | 8.06 pM | –
